T1: radiolabeled Myc-TRIM20 (human, UniProt O15553 1-781, [35S] L-methionine label)
T1 construct: In vitro translated for GST pull-down; the peptide array of TRIM20 peptides is also written under this molecule; not shown: Myc tag
T1 sequence: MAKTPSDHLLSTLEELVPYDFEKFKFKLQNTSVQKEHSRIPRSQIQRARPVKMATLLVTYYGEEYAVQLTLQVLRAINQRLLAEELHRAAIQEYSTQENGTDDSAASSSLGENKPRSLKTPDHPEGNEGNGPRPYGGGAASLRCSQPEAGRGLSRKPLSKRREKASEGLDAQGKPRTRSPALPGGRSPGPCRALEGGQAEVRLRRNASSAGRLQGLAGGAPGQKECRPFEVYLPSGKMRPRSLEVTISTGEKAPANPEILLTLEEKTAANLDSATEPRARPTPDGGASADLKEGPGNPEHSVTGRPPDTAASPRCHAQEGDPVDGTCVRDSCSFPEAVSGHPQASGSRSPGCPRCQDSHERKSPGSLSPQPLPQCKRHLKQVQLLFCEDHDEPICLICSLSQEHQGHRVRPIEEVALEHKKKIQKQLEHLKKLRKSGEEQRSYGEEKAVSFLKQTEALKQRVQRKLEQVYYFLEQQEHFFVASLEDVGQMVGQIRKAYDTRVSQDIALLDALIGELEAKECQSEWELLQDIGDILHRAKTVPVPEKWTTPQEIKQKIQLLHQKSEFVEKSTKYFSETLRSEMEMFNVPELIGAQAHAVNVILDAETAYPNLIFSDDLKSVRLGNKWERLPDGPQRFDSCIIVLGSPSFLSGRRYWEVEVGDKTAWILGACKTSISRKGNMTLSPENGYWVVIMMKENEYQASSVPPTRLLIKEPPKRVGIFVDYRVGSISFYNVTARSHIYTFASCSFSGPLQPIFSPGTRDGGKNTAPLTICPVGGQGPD

B1: GFP-TRIM20 (full-length human TRIM20) (other)
chain: T1 sequence
notes: also called T20; wild type TRIM20; not shown: GFP tag
B2: GST-GABARAP (other)
chain: MKFVYKEEHPFEKRRSEGEKIRKKYPDRVPVIVEKAPKARIGDLDKKKYLVPSDLTVGQFYFLIRKRIHLRAEDALFFFVNNVIPPTSATMGQLYQEHHEEDFFLYIAYSDESVYGL
notes: GST fusion made in E. coli; not shown: GST tag

Tests used:
NLRP3 = target: T2, NLRP3 (UniProt Q96P20 1-1036); assay: co-IP of GFP-TRIM20 variants with NLRP3, HEK293 cells
T2 construct: also called Flag-NLRP3; endogenous NLRP3

radiolabeled Myc-TRIM20 = target: T1, radiolabeled Myc-TRIM20; assay: GST pull-down of radiolabeled Myc-TRIM20

T2 sequence (Q96P20 whole entry): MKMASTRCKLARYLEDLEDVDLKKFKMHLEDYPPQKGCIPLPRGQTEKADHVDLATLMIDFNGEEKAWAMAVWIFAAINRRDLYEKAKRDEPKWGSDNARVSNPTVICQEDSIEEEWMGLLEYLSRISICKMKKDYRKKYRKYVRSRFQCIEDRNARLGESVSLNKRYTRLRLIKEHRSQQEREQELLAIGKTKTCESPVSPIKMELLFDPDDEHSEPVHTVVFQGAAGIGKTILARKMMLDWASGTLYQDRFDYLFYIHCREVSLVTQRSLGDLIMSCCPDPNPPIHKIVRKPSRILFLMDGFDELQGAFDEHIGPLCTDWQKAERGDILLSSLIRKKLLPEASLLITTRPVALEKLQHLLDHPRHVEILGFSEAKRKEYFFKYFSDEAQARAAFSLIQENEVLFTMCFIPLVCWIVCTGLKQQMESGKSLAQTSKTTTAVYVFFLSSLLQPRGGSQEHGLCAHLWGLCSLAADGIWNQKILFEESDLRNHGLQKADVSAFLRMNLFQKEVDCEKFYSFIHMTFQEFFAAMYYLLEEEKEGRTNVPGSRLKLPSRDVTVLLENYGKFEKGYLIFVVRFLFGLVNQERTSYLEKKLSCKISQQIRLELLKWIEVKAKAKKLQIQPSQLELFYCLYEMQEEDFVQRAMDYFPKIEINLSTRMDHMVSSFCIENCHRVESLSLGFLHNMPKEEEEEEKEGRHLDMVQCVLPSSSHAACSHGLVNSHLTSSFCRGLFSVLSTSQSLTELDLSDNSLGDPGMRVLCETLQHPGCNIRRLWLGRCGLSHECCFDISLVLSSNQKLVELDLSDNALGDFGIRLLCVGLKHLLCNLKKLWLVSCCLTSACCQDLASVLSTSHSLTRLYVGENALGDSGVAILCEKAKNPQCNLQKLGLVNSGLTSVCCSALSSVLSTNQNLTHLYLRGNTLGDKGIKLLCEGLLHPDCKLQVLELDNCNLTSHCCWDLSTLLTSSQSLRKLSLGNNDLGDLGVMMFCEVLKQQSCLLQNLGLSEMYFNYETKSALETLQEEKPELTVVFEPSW

Binder	binding result (NLRP3)	binding result (radiolabeled Myc-TRIM20)
B1	binds	
B2		binds
